B1: ZNF232 (parent)
chain: FPKSEQVYLHFLSVVTEDGPEPKD

Variants of: B1
Experiment: protein stability index of a GFP-peptide fusion (GPS, HEK-293T) (PSI 1-6); higher = more stable
Details: c terminus: a fixed tail appended
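Also: lentivirally expressed fusions sorted by FACS into six bins by GFP to DsRed ratio, PSI derived from sequencing read proportions per bin multiplied by bin number.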

Variant | protein stability index
FPKSEQVYLHFLSYVTEDGPEPKD | 3.58
FPKSEQVYLHFLSQVTEDGPEPKD | 2.82
FPKSEQVYLHFLSKVTEDGPEPKD | 2.29
FPKSEQVYLHFLSIVTEDGPEPKD | 3.05
FPKSEQVYLHFLSGVTEDGPEPKD | 2.68
FPKSEQVYLHFLSSVTEDGPEPKD | 1.97
FPKSEQVYLHFLSFVTEDGPEPKD | 2.18
FPKSEQVYLHFLSTVTEDGPEPKD | 2.23
FPKSEQVYLHFLSRVTEDGPEPKD | 2.45
FPKSEQVYLHFLSEVTEDGPEPKD | 3
FPKSEQVYLHFLSHVTEDGPEPKD | 2.34
FPKSEQVYLHFLSLVTEDGPEPKD | 2.86
FPKSEQVYLHFLSMVTEDGPEPKD | 2.37
FPKSEQVYLHFLSWVTEDGPEPKD | 1.29
FPKSEQVYLHFLSNVTEDGPEPKD | 3.09
FPKSEQVYLHFLSPVTEDGPEPKD | 3.14
FPKSEQVYLHFLSCVTEDGPEPKD | 1.92
FPKSEQVYLHFLSDVTEDGPEPKD | 3.72
FPKNEQVYLHFLSVVTEDGPEPKD | 3.06
FPKYEQVYLHFLSVVTEDGPEPKD | 3.17
FPKVEQVYLHFLSVVTEDGPEPKD | 1.61
FPKGEQVYLHFLSVVTEDGPEPKD | 1.66
FPKAEQVYLHFLSVVTEDGPEPKD | 1.77
FPKMEQVYLHFLSVVTEDGPEPKD | 2.35

Variant | protein stability index
FPKTEQVYLHFLSVVTEDGPEPKD | 2.34
FPKLEQVYLHFLSVVTEDGPEPKD | 1.78
FPKHEQVYLHFLSVVTEDGPEPKD | 2.26
FPKKEQVYLHFLSVVTEDGPEPKD | 1.89
FPKREQVYLHFLSVVTEDGPEPKD | 1.66
FPKCEQVYLHFLSVVTEDGPEPKD | 1.74
FPKPEQVYLHFLSVVTEDGPEPKD | 1.95
FPKQEQVYLHFLSVVTEDGPEPKD | 2.29
FPKFEQVYLHFLSVVTEDGPEPKD | 2.49
FPKIEQVYLHFLSVVTEDGPEPKD | 2.58
FPKEEQVYLHFLSVVTEDGPEPKD | 2.95
FPKDEQVYLHFLSVVTEDGPEPKD | 2.24
FPKWEQVYLHFLSVVTEDGPEPKD | 2.14
FPKSEQVYLPFLSVVTEDGPEPKD | 1.94
FPKSEQVYLKFLSVVTEDGPEPKD | 2.73
FPKSEQVYLRFLSVVTEDGPEPKD | 4.1
FPKSEQVYLSFLSVVTEDGPEPKD | 1.95
FPKSEQVYLEFLSVVTEDGPEPKD | 3.46
FPKSEQVYLIFLSVVTEDGPEPKD | 1.26
FPKSEQVYLQFLSVVTEDGPEPKD | 2.36
FPKSEQVYLDFLSVVTEDGPEPKD | 3.04
FPKSEQVYLAFLSVVTEDGPEPKD | 3.29
FPKSEQVYLMFLSVVTEDGPEPKD | 2.65
FPKSEQVYLCFLSVVTEDGPEPKD | 2.81

Variant | protein stability index
FPKSEQVYLGFLSVVTEDGPEPKD | 2.24
FPKSEQVYLVFLSVVTEDGPEPKD | 1.94
FPKSEQVYTHFLSVVTEDGPEPKD | 2.62
FPKSEQVYQHFLSVVTEDGPEPKD | 2.78
FPKSEQVYRHFLSVVTEDGPEPKD | 2.11
FPKSEQVYMHFLSVVTEDGPEPKD | 1.29
FPKSEQVYWHFLSVVTEDGPEPKD | 1.71
FPKSEQVYKHFLSVVTEDGPEPKD | 2.5
FPKSEQVYPHFLSVVTEDGPEPKD | 2.58
FPKSEQVYSHFLSVVTEDGPEPKD | 2.32
FPKSEQVYIHFLSVVTEDGPEPKD | 1.83
FPKSEQVYHHFLSVVTEDGPEPKD | 2.53
FPKSEQVYFHFLSVVTEDGPEPKD | 1.73
FPKSEQVYEHFLSVVTEDGPEPKD | 3.54
FPKSEQVYYHFLSVVTEDGPEPKD | 2.53
FPKSEQVYVHFLSVVTEDGPEPKD | 1.71
FPKSEQVYLHFLSVETEDGPEPKD | 3.1
FPKSEQVYLHFLSVFTEDGPEPKD | 2.44
FPKSEQVYLHFLSVDTEDGPEPKD | 3.45
FPKSEQVYLHFLSVCTEDGPEPKD | 1.72
FPKSEQVYLHNLSVVTEDGPEPKD | 3.18
FPKSEQVYLHPLSVVTEDGPEPKD | 3.74
FPKSEQVYLHKLSVVTEDGPEPKD | 3.17
FPKSEQVYLHELSVVTEDGPEPKD | 4.55

Variant | protein stability index
FPKSEQVYLHSLSVVTEDGPEPKD | 2.65
FPKSEQVYLHRLSVVTEDGPEPKD | 2.83
FPKSEQVYLHALSVVTEDGPEPKD | 2.49
FPKSEQVYLHTLSVVTEDGPEPKD | 2.27
FPKSEQVYLHGLSVVTEDGPEPKD | 3.61
FPKSEQVYLHCLSVVTEDGPEPKD | 1.76
FPKSEQVYLHHLSVVTEDGPEPKD | 2.99
FPKSEQVYLHLLSVVTEDGPEPKD | 2.41
FPKSEQVYLHMLSVVTEDGPEPKD | 2.06
FPKSEQVYLHDLSVVTEDGPEPKD | 3.73
FPKSEQVYLHWLSVVTEDGPEPKD | 2.08
FPKSEQVYLHYLSVVTEDGPEPKD | 2.29
FPKSEQVNLHFLSVVTEDGPEPKD | 2.01
FPKSEQVTLHFLSVVTEDGPEPKD | 2.13
FPKSEQVELHFLSVVTEDGPEPKD | 3.09
FPKSEQVDLHFLSVVTEDGPEPKD | 3.55
FPKSEQVPLHFLSVVTEDGPEPKD | 3.14
FPKSEQVALHFLSVVTEDGPEPKD | 2.46
FPKSEQVWLHFLSVVTEDGPEPKD | 2.2
FPKSEQVGLHFLSVVTEDGPEPKD | 2.15
FPKSEQVQLHFLSVVTEDGPEPKD | 3.33
FPKSEQVLLHFLSVVTEDGPEPKD | 2.14
FPKSEQVFLHFLSVVTEDGPEPKD | 1.88
FPKSEQVILHFLSVVTEDGPEPKD | 2.27

Variant | protein stability index
FPKSEQVCLHFLSVVTEDGPEPKD | 2.49
FPKSEQVHLHFLSVVTEDGPEPKD | 2.31
FPKSEQVVLHFLSVVTEDGPEPKD | 1.98
FPKSEQVYLHFPSVVTEDGPEPKD | 2.34
FPKSEQVYLHFMSVVTEDGPEPKD | 3.84
FPKSEQVYLHFHSVVTEDGPEPKD | 3.49
FPKSEQVYLHFSSVVTEDGPEPKD | 2.75
FPKSEQVYLHFFSVVTEDGPEPKD | 1.73
FPKSEQVYLHFISVVTEDGPEPKD | 1.97
FPKSEQVYLHFKSVVTEDGPEPKD | 3.6
FPKSEQVYLHFDSVVTEDGPEPKD | 3.67
FPKSEQVYLHFCSVVTEDGPEPKD | 2.07
FPKSEQVYLHFQSVVTEDGPEPKD | 3.99
FPKSEQVYLHFWSVVTEDGPEPKD | 1.21
FPKSEQVYLHFVSVVTEDGPEPKD | 2.48
FPKSEQVYLHFTSVVTEDGPEPKD | 2.58
FPKSEQVYLHFESVVTEDGPEPKD | 3.96
FPKSEQVYLHFNSVVTEDGPEPKD | 3.61
FPKSEQVYLHFGSVVTEDGPEPKD | 3.24
FPSSEQVYLHFLSVVTEDGPEPKD | 2.7
FPQSEQVYLHFLSVVTEDGPEPKD | 2.12
FPYSEQVYLHFLSVVTEDGPEPKD | 2.02
FPWSEQVYLHFLSVVTEDGPEPKD | 1.95
FPTSEQVYLHFLSVVTEDGPEPKD | 2.75

Variant | protein stability index
FPVSEQVYLHFLSVVTEDGPEPKD | 2.33
FPKSEMVYLHFLSVVTEDGPEPKD | 1.6
FPKSEVVYLHFLSVVTEDGPEPKD | 1.21
FPKSEKVYLHFLSVVTEDGPEPKD | 1.86
FPKSEEVYLHFLSVVTEDGPEPKD | 2.6
FPKSETVYLHFLSVVTEDGPEPKD | 2.37
FPKSEIVYLHFLSVVTEDGPEPKD | 2.23
FPKSEFVYLHFLSVVTEDGPEPKD | 1.9
FPKSEPVYLHFLSVVTEDGPEPKD | 1.92
FPKSEYVYLHFLSVVTEDGPEPKD | 1.47
FPKSELVYLHFLSVVTEDGPEPKD | 2.18
FPKSESVYLHFLSVVTEDGPEPKD | 1.41
FPKSEDVYLHFLSVVTEDGPEPKD | 2.87
FPKSEHVYLHFLSVVTEDGPEPKD | 1.88
FPKSERVYLHFLSVVTEDGPEPKD | 1.85
FPKSECVYLHFLSVVTEDGPEPKD | 2.19
FPKSEAVYLHFLSVVTEDGPEPKD | 2.3
FPKSENVYLHFLSVVTEDGPEPKD | 2.07
FPKSEQDYLHFLSVVTEDGPEPKD | 1.91
FPKSEQYYLHFLSVVTEDGPEPKD | 1.02
FPKSEQIYLHFLSVVTEDGPEPKD | 1.97
FPKSEQFYLHFLSVVTEDGPEPKD | 1.68
FPKSEQHYLHFLSVVTEDGPEPKD | 1.61
FPKSEQQYLHFLSVVTEDGPEPKD | 1.88

Variant | protein stability index
FPKSEQTYLHFLSVVTEDGPEPKD | 2.1
FPKSEQLYLHFLSVVTEDGPEPKD | 2.32
FPKSEQKYLHFLSVVTEDGPEPKD | 3.21
FPKSEQAYLHFLSVVTEDGPEPKD | 2.2
FPKSEQPYLHFLSVVTEDGPEPKD | 2.97
FPKSEQCYLHFLSVVTEDGPEPKD | 1.63
FPKSEQRYLHFLSVVTEDGPEPKD | 2.49
FPKSEQSYLHFLSVVTEDGPEPKD | 2.59
FPKSEQEYLHFLSVVTEDGPEPKD | 2.8
FPKSEQMYLHFLSVVTEDGPEPKD | 3.74
FPKSEQNYLHFLSVVTEDGPEPKD | 2.27
FPKSEQVYLHFLPVVTEDGPEPKD | 2.14
FPKSEQVYLHFLLVVTEDGPEPKD | 1.76
FPKSEQVYLHFLYVVTEDGPEPKD | 3.15
FPKSEQVYLHFLCVVTEDGPEPKD | 2.31
FPKSEQVYLHFLDVVTEDGPEPKD | 3.54
FPKSEQVYLHFLNVVTEDGPEPKD | 2.46
FPKSEQVYLHFLHVVTEDGPEPKD | 1.81
FPKSEQVYLHFLQVVTEDGPEPKD | 1.53
FPKSEQVYLHFLKVVTEDGPEPKD | 2.48
FPKSEQVYLHFLFVVTEDGPEPKD | 1.66
FPKSEQVYLHFLMVVTEDGPEPKD | 1.96
FPKSEQVYLHFLTVVTEDGPEPKD | 1.78
FPKSEQVYLHFLAVVTEDGPEPKD | 1.89

Variant | protein stability index
FPKSEQVYLHFLGVVTEDGPEPKD | 1.5
FPKSEQVYLHFLRVVTEDGPEPKD | 1.98
FPKSEQVYLHFLEVVTEDGPEPKD | 2.98
FPKSPQVYLHFLSVVTEDGPEPKD | 1.75
FPKSLQVYLHFLSVVTEDGPEPKD | 2.47
FPKSQQVYLHFLSVVTEDGPEPKD | 1.9
FPKSIQVYLHFLSVVTEDGPEPKD | 2.23
FPKSKQVYLHFLSVVTEDGPEPKD | 3.34
FPKSMQVYLHFLSVVTEDGPEPKD | 2.04
FPKSSQVYLHFLSVVTEDGPEPKD | 1.7
FPKSWQVYLHFLSVVTEDGPEPKD | 2.02
FPKSYQVYLHFLSVVTEDGPEPKD | 1.19
FPKSHQVYLHFLSVVTEDGPEPKD | 2.31
FPKSCQVYLHFLSVVTEDGPEPKD | 1.65
FPKSTQVYLHFLSVVTEDGPEPKD | 1.59
FPKSVQVYLHFLSVVTEDGPEPKD | 2.58
FPKSDQVYLHFLSVVTEDGPEPKD | 2.84
FPKSGQVYLHFLSVVTEDGPEPKD | 1.61
FPKSFQVYLHFLSVVTEDGPEPKD | 2.35
FPKSAQVYLHFLSVVTEDGPEPKD | 2.29

From the supplement of paper PMC10567573
